Measured values from paper PMC9482650, “Quantitative fragmentomics allow affinity mapping of interactomes” (Nature Communications, 2022).

T1: LNX2_3, Q8N448
T1 sequence (Q8N448 463-564, limits assumed, looked up): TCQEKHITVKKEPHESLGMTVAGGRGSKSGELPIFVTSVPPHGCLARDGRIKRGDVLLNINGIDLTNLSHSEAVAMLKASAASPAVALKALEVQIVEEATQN

T2: PDZD2_2, O15018
T2 sequence (O15018 329-429, limits assumed, looked up): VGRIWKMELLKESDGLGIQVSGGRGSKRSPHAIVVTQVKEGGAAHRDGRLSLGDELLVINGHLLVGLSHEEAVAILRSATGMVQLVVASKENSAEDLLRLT

T3: DFNB31_3, Q9P202
T3 sequence (Q9P202 811-907, limits assumed, looked up): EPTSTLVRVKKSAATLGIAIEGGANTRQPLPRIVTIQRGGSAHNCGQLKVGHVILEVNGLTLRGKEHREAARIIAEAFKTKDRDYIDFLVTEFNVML

T4: DLG3_3, Q92796
T4 sequence (Q92796 374-475, limits assumed, looked up): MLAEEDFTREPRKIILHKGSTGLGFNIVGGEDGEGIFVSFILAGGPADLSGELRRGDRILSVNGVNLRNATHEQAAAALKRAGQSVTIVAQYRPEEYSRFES

T5: RAPGEF6, Q8TEU7
T5 sequence (Q8TEU7 525-625, limits assumed, looked up): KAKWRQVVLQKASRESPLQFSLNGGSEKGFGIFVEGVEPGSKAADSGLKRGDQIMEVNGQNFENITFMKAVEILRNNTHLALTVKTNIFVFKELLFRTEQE

T6: GRIP1_2, Q9Y3R0
T6 sequence (Q9Y3R0 145-248, limits assumed, looked up): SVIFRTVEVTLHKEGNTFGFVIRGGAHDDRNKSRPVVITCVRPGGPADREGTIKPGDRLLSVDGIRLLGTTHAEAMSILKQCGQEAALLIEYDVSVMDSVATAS

T7: MPDZ_5, O75970
T7 sequence (O75970 695-796, limits assumed, looked up): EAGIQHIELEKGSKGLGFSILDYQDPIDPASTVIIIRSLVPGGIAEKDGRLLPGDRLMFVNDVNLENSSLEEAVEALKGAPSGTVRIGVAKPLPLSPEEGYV

T8: RHPN1, Q8TCX5
T8 sequence (Q8TCX5 508-602, limits assumed, looked up): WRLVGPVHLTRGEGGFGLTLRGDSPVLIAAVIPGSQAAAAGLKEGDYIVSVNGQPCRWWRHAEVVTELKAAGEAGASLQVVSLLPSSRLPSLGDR

T9: FRMPD1, Q5SYB0
T9 sequence (Q5SYB0 52-145, limits assumed, looked up): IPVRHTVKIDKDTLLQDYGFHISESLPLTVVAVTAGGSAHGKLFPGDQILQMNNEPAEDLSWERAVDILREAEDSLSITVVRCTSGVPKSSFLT

T10: MPDZ_12, O75970
T10 sequence (O75970 1857-1958, limits assumed, looked up): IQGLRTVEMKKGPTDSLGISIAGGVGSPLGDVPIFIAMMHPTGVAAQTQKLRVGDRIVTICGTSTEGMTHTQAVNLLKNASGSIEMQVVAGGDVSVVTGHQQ

T11: APBA2_1, Q99767
T11 sequence (Q99767 563-664, limits assumed, looked up): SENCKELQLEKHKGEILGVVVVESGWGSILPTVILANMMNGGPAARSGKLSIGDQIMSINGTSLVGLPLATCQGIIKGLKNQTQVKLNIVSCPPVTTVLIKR

T12: PTPN13_1, Q12923
T12 sequence (Q12923 1088-1188, limits assumed, looked up): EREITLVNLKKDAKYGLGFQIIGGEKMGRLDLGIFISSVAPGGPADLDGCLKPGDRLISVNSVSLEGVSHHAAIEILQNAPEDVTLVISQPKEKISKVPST


What was measured:
Assay in all cases: holdup assay
Set-up in all cases: key: below the threshold = too weak to quantify, mostly under pKd 3.1 to 4
Settings in all cases: plain residues with an end cap or a label only (N-terminal biotin on a linker: ado-ado)
Inadl_8, Q8NI35 = target: Inadl_8, Q8NI35
LNX1_2, Q8TBB1 = target: LNX1_2, Q8TBB1
LNX2_3, Q8N448 = target: T1, LNX2_3, Q8N448
PDZD2_2, O15018 = target: T2, PDZD2_2, O15018
DFNB31_3, Q9P202 = target: T3, DFNB31_3, Q9P202
NOS1, P29475 = target: NOS1, P29475
MAGI2_2, Q86UL8 = target: MAGI2_2, Q86UL8
DLG3_3, Q92796 = target: T4, DLG3_3, Q92796
AHNAK1, Q09666 = target: AHNAK1, Q09666
GRIP2_3, Q9C0E4 = target: GRIP2_3, Q9C0E4
DLG2_2, Q15700 = target: DLG2_2, Q15700
RAPGEF6, Q8TEU7 = target: T5, RAPGEF6, Q8TEU7
GRIP1_2, Q9Y3R0 = target: T6, GRIP1_2, Q9Y3R0
MPDZ_5, O75970 = target: T7, MPDZ_5, O75970
RHPN1, Q8TCX5 = target: T8, RHPN1, Q8TCX5
FRMPD1, Q5SYB0 = target: T9, FRMPD1, Q5SYB0
SNX27, Q96L92 = target: SNX27, Q96L92
NHERF4_1, Q86UT5-2 = target: NHERF4_1, Q86UT5-2
HTRA2, O43464 = target: HTRA2, O43464
GRIP2_7, Q9C0E4 = target: GRIP2_7, Q9C0E4
MPDZ_12, O75970 = target: T10, MPDZ_12, O75970
APBA2_1, Q99767 = target: T11, APBA2_1, Q99767
FRMPD2_3, Q68DX3 = target: FRMPD2_3, Q68DX3
PTPN13_1, Q12923 = target: T12, PTPN13_1, Q12923

MAGI2_2, Q86UL8, sequence (Q86UL8 410-522): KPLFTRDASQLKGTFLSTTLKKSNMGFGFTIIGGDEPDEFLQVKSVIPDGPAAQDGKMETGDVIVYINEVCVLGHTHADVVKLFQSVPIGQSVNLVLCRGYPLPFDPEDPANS
HTRA2, O43464, sequence (O43464 355-458): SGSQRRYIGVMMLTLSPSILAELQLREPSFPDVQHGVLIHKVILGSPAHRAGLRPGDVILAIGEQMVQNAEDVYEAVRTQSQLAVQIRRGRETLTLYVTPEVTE
AHNAK1, Q09666, sequence (Q09666 4-100): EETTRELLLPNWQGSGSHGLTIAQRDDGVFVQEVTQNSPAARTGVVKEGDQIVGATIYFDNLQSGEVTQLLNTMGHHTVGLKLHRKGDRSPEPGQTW
FRMPD2_3, Q68DX3, sequence (Q68DX3 1073-1166): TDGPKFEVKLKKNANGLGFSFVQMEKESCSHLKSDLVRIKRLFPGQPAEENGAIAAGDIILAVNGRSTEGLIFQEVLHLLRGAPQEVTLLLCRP
NOS1, P29475, sequence (P29475 9-101): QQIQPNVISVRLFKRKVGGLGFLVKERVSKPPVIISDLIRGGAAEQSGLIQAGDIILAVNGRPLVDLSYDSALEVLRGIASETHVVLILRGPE
NHERF4_1, Q86UT5-2, sequence (Q86UT5 other isoform, or with tags, fused parts or gaps): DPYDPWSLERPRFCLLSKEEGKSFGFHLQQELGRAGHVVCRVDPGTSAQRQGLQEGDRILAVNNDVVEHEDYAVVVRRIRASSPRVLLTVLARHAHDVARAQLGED
DLG2_2, Q15700, sequence (Q15700 189-283): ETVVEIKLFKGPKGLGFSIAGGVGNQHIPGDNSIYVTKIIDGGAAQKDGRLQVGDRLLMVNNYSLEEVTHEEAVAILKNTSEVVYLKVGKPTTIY
GRIP2_3, Q9C0E4, sequence (Q9C0E4 238-339): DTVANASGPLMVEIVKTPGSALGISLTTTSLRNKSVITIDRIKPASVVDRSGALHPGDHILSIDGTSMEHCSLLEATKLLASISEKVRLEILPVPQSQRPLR
GRIP2_7, Q9C0E4, sequence (Q9C0E4 934-1023): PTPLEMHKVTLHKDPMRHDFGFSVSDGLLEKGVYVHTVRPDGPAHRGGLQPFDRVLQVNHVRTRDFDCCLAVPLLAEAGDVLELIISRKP
Inadl_8, Q8NI35, sequence (Q8NI35 1425-1530): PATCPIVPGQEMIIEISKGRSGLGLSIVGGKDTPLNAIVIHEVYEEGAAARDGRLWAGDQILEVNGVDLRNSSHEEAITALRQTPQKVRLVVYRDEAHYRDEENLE
LNX1_2, Q8TBB1, sequence (Q8TBB1 371-470): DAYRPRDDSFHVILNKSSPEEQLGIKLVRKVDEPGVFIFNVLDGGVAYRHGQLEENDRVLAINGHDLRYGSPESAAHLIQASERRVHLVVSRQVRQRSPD

pKd (Inadl_8, Q8NI35) | pKd (LNX1_2, Q8TBB1) | pKd (LNX2_3, Q8N448) | pKd (PDZD2_2, O15018) | pKd (DFNB31_3, Q9P202) | pKd (NOS1, P29475) | pKd (MAGI2_2, Q86UL8) | pKd (DLG3_3, Q92796) | pKd (AHNAK1, Q09666) | pKd (GRIP2_3, Q9C0E4) | pKd (DLG2_2, Q15700) | pKd (RAPGEF6, Q8TEU7) | pKd (GRIP1_2, Q9Y3R0) | pKd (MPDZ_5, O75970) | pKd (RHPN1, Q8TCX5) | pKd (FRMPD1, Q5SYB0) | pKd (SNX27, Q96L92) | pKd (NHERF4_1, Q86UT5-2) | pKd (HTRA2, O43464) | pKd (GRIP2_7, Q9C0E4) | Binder | other results
4.06 | below the threshold | below the threshold | 4.75 | 4.09 | below the threshold | below the threshold | below the threshold | below the threshold | below the threshold | below the threshold | below the threshold | below the threshold | below the threshold | 4.06 | below the threshold | 5.16 | 4.35 | below the threshold | below the threshold | SAAKVLTSMC [GHRHR, Q02643] | pKd (MPDZ_12, O75970): below the threshold; pKd (APBA2_1, Q99767): below the threshold; pKd (FRMPD2_3, Q68DX3): below the threshold; pKd (PTPN13_1, Q12923): below the threshold
3.72 | 3.9 | below the threshold | 4.32 | below the threshold | below the threshold | 4.74 | 3.85 | below the threshold | below the threshold | 4.76 | below the threshold | below the threshold | below the threshold | 4.24 | below the threshold | 5.6 | below the threshold | below the threshold | below the threshold | TACCHSETVV [TGFA, P01135] | pKd (MPDZ_12, O75970): below the threshold; pKd (APBA2_1, Q99767): below the threshold; pKd (FRMPD2_3, Q68DX3): 3.56; pKd (PTPN13_1, Q12923): below the threshold
below the threshold | below the threshold | below the threshold | below the threshold | below the threshold | 4.38 | 4.02 | below the threshold | below the threshold | below the threshold | below the threshold | below the threshold | below the threshold | below the threshold | below the threshold | below the threshold | below the threshold | 3.91 | below the threshold | below the threshold | TSSMRGMDAV [RSRC2, Q7L4I2] | pKd (MPDZ_12, O75970): below the threshold; pKd (APBA2_1, Q99767): below the threshold; pKd (FRMPD2_3, Q68DX3): below the threshold; pKd (PTPN13_1, Q12923): below the threshold
below the threshold | 3.61 | below the threshold | below the threshold | below the threshold | below the threshold | below the threshold | below the threshold | below the threshold | below the threshold | below the threshold | below the threshold | below the threshold | below the threshold | below the threshold | below the threshold | below the threshold | below the threshold | 4.18 | 4.34 | QSPANIYYKV [EFNB1, P52799] | pKd (MPDZ_12, O75970): below the threshold; pKd (APBA2_1, Q99767): below the threshold; pKd (FRMPD2_3, Q68DX3): below the threshold; pKd (PTPN13_1, Q12923): below the threshold
3.77 | below the threshold | below the threshold | 4.22 | below the threshold | below the threshold | 3.82 | below the threshold | below the threshold | below the threshold | below the threshold | below the threshold | below the threshold | below the threshold | below the threshold | below the threshold | below the threshold | below the threshold | below the threshold | below the threshold | TLPRKRMSSI [GPRC6A, Q5T6X5] | pKd (MPDZ_12, O75970): below the threshold; pKd (APBA2_1, Q99767): below the threshold; pKd (FRMPD2_3, Q68DX3): below the threshold; pKd (PTPN13_1, Q12923): below the threshold
3.81 | below the threshold | below the threshold | 4.46 | 4.2 | below the threshold | 3.72 | 4.29 | below the threshold | below the threshold | 3.85 | below the threshold | below the threshold | below the threshold | 4.57 | below the threshold | 5.41 | below the threshold | below the threshold | below the threshold | QSARLWETSI [ADAM22, Q9P0K1] | pKd (MPDZ_12, O75970): below the threshold; pKd (APBA2_1, Q99767): below the threshold; pKd (FRMPD2_3, Q68DX3): below the threshold; pKd (PTPN13_1, Q12923): below the threshold
